Data from article PMC10605006.

Target: NTD (SARS-CoV-2) (UniProt P0DTC9)
Assay: fluorescence anisotropy
Details: Anisotropy: 50 mM Na phosphate pH 6.5, 150 mM NaCl, 1 mM NaN3, 50 nM RNA; EMSA: 20 mM Tris pH 7.5, 150 mM NaCl, 1 mM DTT, room temp, 25 uM RNA; NTD NMR: 20 mM …

Sequence: GGCACAUGGACGUC / GACGUCCAUGUGCC [ds-14mer]
- Kd: 30 µM
